Assay results published in the nanobody polyreactivity screen of Harvey et al. (2022).

Assay: yeast display, Sf9 membrane polyspecificity reagent, FACS + sequencing; frameworks hold sequencing errors
In short: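 Galactose-induced (36–48 hours) yeast carrying a synthetic nanobody display library were exposed to 10% biotinylated, detergent-solubilized Sf9 membrane reagent at 4 °C for 1 hour. FACS followed streptavidin microbead enrichment, using low and high (top ~1%) gates for expression (anti-HA) and reagent binding (streptavidin). Colony PCR, MiSeq 2 × 250 sequencing and CDR-length filtering followed. Labels for polyreactivity reflect the gate of origin.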

| Sequence | polyreactivity (PSR sort gate) |
| --- | --- |
| QVQLVDSGGGLVQAGGSLRLSCAASGSIFYHNAMGWSRQAPGKERELVAAITWSGSTTYYADSVKGRFTISRDNAKNTVYLQMNRLKPEDTAVYYCAVDIYYYSNVHYYYWGQGTQVTVSS | low polyreactivity |
| QVQLVESGGGLVQAGGSLRLSCAASGRNFFRYAMGWYRQAPGKERELVATISRSGGTYADSVKGRFTISRDNAKNTVYLQMNSLKPEDTAVYYCNARTLYAYITRDYWGQGTQVTVSS | high polyreactivity |
| QVQLVESGGGLVQAGGSLRLSCAASGITFRRYTMGWYRQPPGKERELVATISLSDGNTYYADSVKGRFTISRDNAKNTVYLQMNSLKPEDTAVYYCNARHTWHQTYDYWGQGTQVTVSS | low polyreactivity |
| QVQLVESGGGLVQAGGSLRLSCAASGRTFLVYAMGWYRQAPGKERELVAAITSGGDTYADSVKGRFTISRDNAKNTVYLQMNSLKPEDTAVYYCAVQPDYFIVLWEYDYWGQGTQVTVSS | high polyreactivity |
| QVQLVESGGGLVQAGGSLRLSCAASGFTLSGNAMGWYRQAPGKERELVAAINGSGGSTYYADSVKGRFTISRDNAKNTVYLQMNSLKPEDTAVYYCAAAGSYGQAYSIFTLDSWGPGTQVTVSS | low polyreactivity |
| QVQLVESGGGLVQAGGSLRLSCAASGITFDGYGMGWYRQAPGKERQLVAAITYSGGRTYYADSVKGRFTISRDIEKNTVYLQMNSLKPEDTAVYYCAVVSRRLYEYDYWGQGTQVTVSS | high polyreactivity |
| QVQLVESGGGLVQAGGSLRLSCAASGIIFYGYAMGWYRQAPGKERELVAAISSGGGTNYADSVKGRFTISRDNAKNTVYLQMNSLKPEDTAVYYCAAGGKKRDDYWGQGTQVTVSS | high polyreactivity |
| QVQLEESGGGLVQAGGSLRLSCAASGRIFKGYAMGWYRQATGKETEVVAAISSRGGNTYYADSVKGRFTISRDNAKNTVYLQMNSLKPVDTAVYYCAAVYKWSRYGGYNYWGQGTQVTVSS | low polyreactivity |
| QVQLVESGGGLVQAGGSLRLICAASGSTFYRNVMGWYRQAPGKERELVAAISSGGSTYYADSVKGRFTISRDNAKNTVYLQMNSLKPEDTAVYYCAARKRYSYDYWGQGTQVTVSS | low polyreactivity |
| QVQLVESGGGLVQAGGSLRLSCAASGFTITAYAMGWYRQAPGKERELVAAISYSGGRTYYADSVKGRFTISRDIAKNTVYLQMNSLKTEDTAVYYCYAVLAHYQSLVYWGQGSQVTVSS | high polyreactivity |
| QVQLVESGGGLVQAGGSLRLSCAASGSIFAINTMGWYRQAPGKERELVAAITSGGSTYYSDSVKGRFTISRDNAKNTVYLQMNSLKPEDTAVYYCAATPIGQHFTVDYWGQGTQVTVSS | low polyreactivity |
| QVQLVESGGGLVQAGGSLRLSCAASGSTFSHNAMGWYREATGKERELVAAITAGGITYYADSVKGRFTISRDNAKNTVYLQMNSLKPEETAVYYCAGDFWPSGRGVAFDYWGQGTQVTVSS | low polyreactivity |
| QVQLVESGGGLVQAGGSLRLSCAASGRISSSYDMGWYIQAPAKDRELVAAISSGSSTYYAHSVKVRFTISRDNAKNTVYLQMNSLKREDTAVYYCAKLHYAHYWGQGTQVTVSS | low polyreactivity |
| QVQLVESGGGLVQAGGSLRLSCAASGSTFIDYAMGWYRQAPGKDRELVAAITWSGSSTYYADSVKGRFTISRDNAKNTVDLQMNSLKPEDTAVYYCAARYWYQSYHTYGYYSWGQGTQVTVSS | low polyreactivity |
| QVQLVESGGGLVQAGGRLRLSCAASGRIFYTYTMGWYRQAPGKERELVATITDGTRTNYADSVKVRFTISRDNAKITVYLQMNSLKHEDTAVYYCNAAGRWHDLYRINYDYWGQGTQVTVSS | low polyreactivity |
| QVQLVESGGGLVQAGGSLRLSCAASGLTFFPNVMGWYRQAPGKERELVAAISRSGDRTFYADSVKGRFTISRDNAKNTVYLQMNSLKPEDTAVYYCAADSGSSRSRRGYEYWGQGTQVTVSS | high polyreactivity |
| QVQLVESVGGLVQEGGSLRLICAASGSIFYTYAMGWYRQAPGKERELVAAIRSTGRTNYADSVKGRFTISRDNAKNTVYLHMNSLKPEDTGVYYCAAGTNYGKLRIRFDYWGQGTQVTVSS | low polyreactivity |
| QVQLVESGVGLVQAGGSLRLSCAASGRIFAYNAMGWYRQAPGKERELVAAISSSDDDTYYADSVKGRFTISRDNAKNTVYLQMNSLKPEDTAGYYCAAEWDTDRLWAGPRGSLYDYWGQGTQVTVSS | high polyreactivity |
| QVQLVESGGGLVQAGGSLRLSCAASGRIFSYNAMGWYRQAPGKERELVAAISYGGGRTYYADSVKGRFTISRDNAKNTVYLQMNSLKPEDTAVYYCAATSSLGDFRYDYWRQGTQVTVSS | high polyreactivity |
| QVQLVESGGGLVQAGGSLRLSCAASGSTFGDYAMGWYRQAPGKERELVAAISARGASTYYADSVKGRFTISRDNAKNTVYLQMNSLKPEDTAVYYCAARYVSSGRRFDYCGQGTQVTVSS | high polyreactivity |
| QVQLQESGGGLEQAGGSLRLSCAESGIIFDNPNMGWYRQAPGKERELVATINSGATTNYADSVKGRFTISRDNAKNTVYLQMNSLIPEDTAVYYCSVDLSPTYFYVWGQGTQVTVSS | high polyreactivity |
| QVHLVESGGGLVQAGGSLRLSCAASGSTSAYYVMGWYRQAPGKERELVAAIDFSGDSTYYADSVKGRFTISRDNAKNTVYLQMNSLKPEDTAVYYCAAELFYYSSLVTYEYWGQGTQVTVSS | high polyreactivity |

| Sequence | polyreactivity (PSR sort gate) |
| --- | --- |
| QVQLVESGGGLVQAGGSLRLSCAASGSTFLTNVMGWYRQAPGKEREFVAAITANGGRTYYADSVKGRFTISRDYAKMTVYLQMNSLKPEDTAVYYAVETAWSYNSNYWFDYWGEGTQVTVSS | high polyreactivity |
| QVQLVESGGGLVQAGGSLRLSCAASGRTFYSYSMGWYRQAPGKERELVAAINRSGGRTYYADSVKGRFTISRDNAKNTVYLQMNSLKPEDTAVYYCNALEYYRYDYWGQGTQVTVSS | high polyreactivity |
| QVHLVESGGGLVQAGGTLRLSCAASGSIFATYGMGSYRQAPGKERELVAAITSSGGSTYYADSVKGRFTISRDHAKNTVYLQMNSLKPEDTAVYYFAADSYIIWYGSVVSYGEDSWGQGTQVTVSS | low polyreactivity |
| QVQLVESGGGLVQAGGSLRLSSAASGRTFQYYAMGWYRQAPGKERELVAAITSGGSTYYADSVKGRFTISRDNAKNTVSLQMNSLKPEDTAVYYCAATFYYSGHDDYWGQGTQVTVSS | low polyreactivity |
| QVQLVESGGGLLQAGGSLRLSCAASGFIFHHYGMGWYRQAPGKERELVAGDTHYADSVKGRFTISRDNAKNTVYLQMNSLKPEDTGVYYCNAYWKDDFEDGPGRRGMDYWGQGTQVTVSS | low polyreactivity |
| QVQLVESAGGLVQAGGSLRLSCAASGSIFAGNVMGWYRQEPGKEWELVAAISRRGGRTYYADSVKGRFTISRDNAKNTVYLQMNSLKPEETAVYYCAARRDPVLCKSDYWGQGTQVTVSS | high polyreactivity |
| QVQLLESGGGLVQAGGSLRLSCAASGLIFKYYAMGWYRQAPGKERELVAVITSSGGSTYYADSVKGRFTISRDNANNTVYLQMNSLKPEDTAVYYCAARRVRWPYDYWGQGTQVTVSS | high polyreactivity |
| QVQLVESGGGLVQAGGSLRLSCAASGMIFVNAMGWYRQAPGKEREFVAAITYSTGSTYYADSVKGRFTISRDNAKNTVYLQMNSLKPEDTAVYYCAKDRSGHGTERDYWGQGTQVTVSS | low polyreactivity |
| QDQLEESGGGLVQAGGSLRLSCAASGFIFNHYAMGWYRQAPGKEREFVAAISWSGGSTYYADSVKGRFTISRDYAKNTVYLQMNSLKPEDTAVYYCAASYNGLWHGDYDYWGQGTQVTVSS | low polyreactivity |
| QVQLVESGGGLVQAGGSLRLSCAASGFTIYGYAMGGDRQAPGPERELVAAITSRGGSTYYADSVKGRFTISRDNAKNTVYLQMNSLKPEDTAVYYCSKASGIYLGSRYYDVPMDYWGQGTQVTVSS | high polyreactivity |
| QVQLVESGGGLVQAGGSLRLSCAASGSTFSKYAMGWYRQAPGKERELVAAISSRGGSTYYADSVKGRFTISRDNAKNTVYLQMNSLKPEDTAVYYCATYYVYKLYYWGQGTQVTVSS | high polyreactivity |
| QVQLVESGGGLVQAGGSLRLSCAASGRTFYGNAMGWYRQAPGTEREFVAAITRSGGTTYYADSVKGRFTISRDNAKNTVYLQMNSLKPEDTAVYYCARSYGWYRWAGYDYWGQGTQVTVSS | high polyreactivity |
| QVQLVESGGGLVQAGGSLRLSCAPSGSTFYSNAMGWYRQAPGKERELVASISWSSGSTYYADSVKGRFTISRDNAKNTVYLQMNSLKPEDTAVYYCNKRPVILYDYWGQGTQVTVSS | low polyreactivity |
| QVQLVESGGRLVEAGGSLRLSCAASGSTISGNAMGWYRQAPGKERELVAEITSDDSTNYADSVKGRFTISRDNAKNSVYLQMNSLKPEDTAVYYCAADVTYPYYQDHSVDYFIGYAYWRQGTQVTVSS | low polyreactivity |
| QVQLVESGGGLVQAGGSLRLSCAASGRIFGLYTIGWYRQAPGKDREFVAGITYSAGRTYYADSVKGRFPISRDNAKNTVYLQMNSLKPEDTAVYYCAARIYSKFTSYGILDSWGQGTQVTVSS | high polyreactivity |
| QVQLVESGGGLVQAGGSLRLSCAASGFIFKSYTMGWYRQAPGKERELVADISKSGGSTYYADSVKGRFTISRDNAKNTVYLQMNSLKPEDTAVYYCNADIWLYVNNYSEYDYWGQGTQVTVSS | high polyreactivity |
| QVQLVESGRGLVQAGGSLRLSCAPSGSTFGKYAMGWFRQAPGKERELVAASSSGTSTNYADSVKGRFTISRDNAKNTVYLQMNSRKAEDTSVYYCAADSLKRYDDWGQGTQVTVSS | low polyreactivity |
| QVQHVESGGGLVQAGGSLRLSCAASGSTFSHYAMGWYRQAPGKERELVASINSAGSTNYADSVKGRFTISRDNAKNTVYLQMNSLKPEDTAVYYCNTEVQVYSYNYWGQGTQVTVSS | low polyreactivity |
| QVQLEESGGGLVKAGGSLRLTCAASGIIFVEYAMGWYRQAPGKERELVARIRYSGGSTYYADSVKGRFTISRDNAKNTVYLQMNSLQPEDTAVYYCNALLPYIYDYWGKGTQVTVSS | low polyreactivity |
| QVQLVESGGGLVQAGGSLRLICAASGRIFRVNAMGWYIQAPGKERELVAGITWSGGSTYYADSVKGRFTISRDNAKNTVYLQMNSLQPEDTAVYSCNAEYSPSYLFYWYEYIYWGQGSQVTVSS | high polyreactivity |
| QVQLGESGGGLVQAGGSLRLSCAASGIIYKYAMGWYRQAPGQERELVATITWSDCSTYYADSVKGRFTISRDNAKNTVSLQMNSLKPEDTAVYYCAADDYYGYDYWGQGTQVTVSS | low polyreactivity |
